Laboratory results reported in the supplement of paper PMC7877785.
± gives the uncertainty stated by the source.

Experiment: self-splicing fitness, log relative to wild type (ln ratio); higher = more splicing; Tetrahymena group I intron in knt gene, E. coli kanamycin selection, DiMSum; sequences stand for … in CUCUCU…GGAGGGAAAAGUUAUCAGGCAUGCACCUGGUAGCUAGUCUUUAAACCAAUAGAUUGCAUCGGUUUAAAAGGCAAGACCGUCAAAUUGCGGGAAAGGGGUCAACAGCCGUUCAGUACCAAGUCUCAGGGGAAACUUUGAGAUGGCCUUGCAAAGGGUAUGGUAAUAAGCUGACGGACAUGGUCCUAACCACGCAGCCAAGUCCUAAGUCAACAGAUCUUCUGUUGAUAUGGAUGCAGUUCACAGACUAAAUGUCGGUCGGGGAAGAUGUAUUCUUCUCAUAAGAUAUAGUCGGACCUCUCCUUAAUGGGAGCUAGCGGAUGAAGUGAUGCAACACUGGAGCCGCUGGGAACUAAUUUGUAUGCGAAAGUAUAUUGAUUAGUUUUGGAGUACUCGUGGUCG
How it was run: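 Library with all eight P1ex-region intron nucleotides randomised, intron inside the knt kanamycin-resistance gene on pET-22b(+), in E. coli BL21(DE3). Cells grew overnight at 37°C or 30°C on LB agar with or without 25 μg/mL kanamycin (plus 100 μg/mL carbenicillin, 50 μM IPTG, 0.2% rhamnose), in six replicate transformations. Pooled colonies were amplicon-sequenced on Illumina HiSeq 2500. DiMSum fitness is the error-weighted combination of wild-type-normalised replicate fold changes, kanamycin versus none.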

Sequence	self-splicing fitness (ln) (30 °C)	self-splicing fitness (ln) (37 °C)
AAAUAGCAAUAUUACGUUAA	-2.87 ± 0.2	-2.1 ± 0.24
GUACAGCAAUAUUACGGGCU	-3.98 ± 0.3	-2.1 ± 0.21
GUUCAGCAAUAUUACGGUCU	-0.136 ± 0.047	0.327 ± 0.063
AUGGAGCAAUAUUACGACCG	-3.83 ± 0.37	-1.19 ± 0.26
GACGAGCAAUAUUACGACUA	-1.94 ± 0.45	-0.17 ± 0.37
CCGGAGCAAUAUUACGGGCC		-2.03 ± 0.33
AAGAAGCAAUAUUACGGUAA	-2.01 ± 0.19	-0.929 ± 0.16
UGCAAGCAAUAUUACGGCUG	-2.12 ± 0.14	-1.14 ± 0.18
CAGCAGCAAUAUUACGAACG	-0.451 ± 0.073	0.304 ± 0.11
GGCUAGCAAUAUUACGGUUU	0.173 ± 0.078	0.305 ± 0.09
GGGAAGCAAUAUUACGGACA	-0.34 ± 0.087	-0.0303 ± 0.13
UGUUAGCAAUAUUACGUCUC	-4.05 ± 0.42	-2.07 ± 0.31
UUGUAGCAAUAUUACGAUUG	-2.16 ± 0.15	-1.42 ± 0.2
CACGAGCAAUAUUACGGUAU	-3.04 ± 0.23	-2.25 ± 0.22
UUACAGCAAUAUUACGAACU	-2.26 ± 0.15	-0.279 ± 0.13
AUGAAGCAAUAUUACGCUUC	-1.79 ± 0.15	-2.99 ± 0.41
CGUUAGCAAUAUUACGGGAC	-2.68 ± 0.34	-3.7 ± 0.39
CACGAGCAAUAUUACGUGCU	-2.25 ± 0.12	-2.99 ± 0.22
AACUAGCAAUAUUACGUGUU	-2.68 ± 0.11	-2.45 ± 0.16
ACCGAGCAAUAUUACGGCCG	-2.57 ± 0.09	-1.09 ± 0.1
ACCGAGCAAUAUUACGUUUC	-4.37 ± 0.29	-2.94 ± 0.32
GCUGAGCAAUAUUACGGCCG	-3.94 ± 0.32	-2.37 ± 0.39
UACCAGCAAUAUUACGAAAU	-2.64 ± 0.14	-1.26 ± 0.13
UACGAGCAAUAUUACGAGCG	-1.12 ± 0.13	-0.262 ± 0.14
UUACAGCAAUAUUACGGCAU	-2.01 ± 0.074	-0.552 ± 0.087
AACCAGCAAUAUUACGACGC	-0.537 ± 0.082	-0.0547 ± 0.098

Sequence	self-splicing fitness (ln) (30 °C)	self-splicing fitness (ln) (37 °C)
CUGUAGCAAUAUUACGCGAU	-4.41 ± 0.32	-2.87 ± 0.28
CCGGAGCAAUAUUACGGACA	-2.43 ± 0.42	-2.97 ± 0.47
UACCAGCAAUAUUACGCGUC	-2.06 ± 0.11	-1.13 ± 0.1
CGGGAGCAAUAUUACGCACC	-3.47 ± 0.39	
GACUAGCAAUAUUACGCUUG	-1.96 ± 0.1	-1.28 ± 0.13
UGUUAGCAAUAUUACGCGCG	-1.36 ± 0.19	-0.771 ± 0.21
UGGUAGCAAUAUUACGUGCG	-0.612 ± 0.12	-0.415 ± 0.15
CUACAGCAAUAUUACGCCAA	-3.32 ± 0.17	-3.04 ± 0.25
GAUGAGCAAUAUUACGCAGC		-1.61 ± 0.41
GAUUAGCAAUAUUACGUCCG	-1.73 ± 0.25	-2.61 ± 0.41
CCUAAGCAAUAUUACGCACU	-2.71 ± 0.23	-2.96 ± 0.23
AUCAAGCAAUAUUACGAUGA	-0.483 ± 0.076	-0.19 ± 0.086
AUCAAGCAAUAUUACGGGGU	-3.94 ± 0.2	-2.48 ± 0.15
GAGAAGCAAUAUUACGCAGG	-2.26 ± 0.16	-2.91 ± 0.2
UGGCAGCAAUAUUACGAAGA	-1.98 ± 0.2	-1.41 ± 0.2
AUUUAGCAAUAUUACGCCAG	-2.27 ± 0.27	
GUGAAGCAAUAUUACGAUGG	-2.31 ± 0.11	0.388 ± 0.13
UCCUAGCAAUAUUACGGAAA	-1.98 ± 0.23	-2.51 ± 0.29
CUCGAGCAAUAUUACGUCAC	-3.1 ± 0.3	-1.11 ± 0.22
AACUAGCAAUAUUACGCGGU	-4.59 ± 0.29	-0.982 ± 0.17
UCGUAGCAAUAUUACGUGUG	-2.3 ± 0.1	-1.41 ± 0.089
GUUUAGCAAUAUUACGUCAA	-2.3 ± 0.18	-0.778 ± 0.16
GUAAAGCAAUAUUACGACAU	0.272 ± 0.012	0.348 ± 0.032
CAGAAGCAAUAUUACGCUAA	-4.46 ± 0.42	-1.97 ± 0.26
ACACAGCAAUAUUACGCCUG	-0.898 ± 0.07	-0.245 ± 0.076
CCCAAGCAAUAUUACGACCA	-4.66 ± 0.32	-2.27 ± 0.17

Sequence	self-splicing fitness (ln) (30 °C)	self-splicing fitness (ln) (37 °C)
CCAGAGCAAUAUUACGGCUC	-2.69 ± 0.23	-2.76 ± 0.26
UCACAGCAAUAUUACGAUCU	-2.71 ± 0.1	-1.78 ± 0.11
UGUGAGCAAUAUUACGCCUU	-2.28 ± 0.4	
CGGGAGCAAUAUUACGUAAC	-1.35 ± 0.27	
AGUGAGCAAUAUUACGGUCU	-0.639 ± 0.11	-0.463 ± 0.12
GGCUAGCAAUAUUACGCGGU	-2.92 ± 0.38	-3.63 ± 0.24
GAGGAGCAAUAUUACGCGCA	-2.42 ± 0.2	-0.968 ± 0.16
CGGUAGCAAUAUUACGGUAA	-2.99 ± 0.29	-3.12 ± 0.3
CGCAAGCAAUAUUACGAGGG	-3.85 ± 0.23	-2.9 ± 0.32
CCAUAGCAAUAUUACGAAGA	-3.41 ± 0.29	-2.91 ± 0.34
GUUUAGCAAUAUUACGAUUU	-0.709 ± 0.068	0.111 ± 0.096
AUACAGCAAUAUUACGAAUA	-2.51 ± 0.12	-0.987 ± 0.11
UGCGAGCAAUAUUACGUAUG	-3.11 ± 0.16	-2.29 ± 0.21
GCGUAGCAAUAUUACGUGCU	-2.05 ± 0.16	-2.44 ± 0.27
GGCGAGCAAUAUUACGACAU	-0.665 ± 0.015	-0.155 ± 0.034
CAUUAGCAAUAUUACGCGCC	-3.41 ± 0.32	-2.26 ± 0.35
UGCGAGCAAUAUUACGCAGG	-4.38 ± 0.46	-2.18 ± 0.28
AUUCAGCAAUAUUACGUUUG	-2.76 ± 0.094	-1.54 ± 0.1
ACGGAGCAAUAUUACGCAGA	-2.52 ± 0.36	-2.02 ± 0.29
GCAUAGCAAUAUUACGCUCC	-1.61 ± 0.17	-1.94 ± 0.31
UAUUAGCAAUAUUACGAAUG	-0.433 ± 0.082	-0.322 ± 0.11
ACUUAGCAAUAUUACGCAAU	-3.64 ± 0.26	-2.05 ± 0.21
GUCCAGCAAUAUUACGUCCU	-1.77 ± 0.13	-0.83 ± 0.12
AGCUAGCAAUAUUACGUUCU	-1.07 ± 0.062	-0.621 ± 0.08
UGAUAGCAAUAUUACGUGAA	-3 ± 0.17	-1.7 ± 0.16
